In patent US6858583B2, “Hemoglobin alpha chain peptide fragments useful for inhibiting stem cell proliferation” (Wellstat Therapeutics Corporation, priority 1993, dated 2005):

B1: macrophage inflammatory protein 1-alpha (protein, UniProt P10147 24-92, looked up)
C-C motif chemokine 3: SLAADTPTACCFSYTSRQIPQNFIADYFETSSQCSKPGVIFLTKRSRQVCADPSEEWVQKYVSDLELSA
B2: myoglobin: structurally related protein, inactive in the assay (protein, UniProt P02144 2-154, looked up)
Myoglobin: GLSDGEWQLVLNVWGKVEADIPGHGQEVLIRLFKGHPETLEKFDKFKHLKSEDEMKASEDLKKHGATVLTALGGILKKKGHHEAEIKPLAQSHATKHKIPVKYLEFISECIIQVLQSKHPGDFGADAQGAMNKALELFRKDMASNYKELGFQG

Key:
HPP-CFC = test: High proliferative potential colony (HPP-CFC) assay after pre-incubation; type: cell-based, mouse; conditions: 200 ng/ml, 4 hours pre-incubation, day 14
Protocol: An in vitro assay for assessing murine reconstituting stem cells and early precursors is the high proliferative potential colony ([…]) assay; other related assays, e.g., CFU-A, CFU-GM, CFU-E, and CFU-GEMM, detect progressively restricted progenitor populations (M. Moore, Blood 177:2122-2128, 1991). […] BDF1 mice were treated with 5-fluorouracil (200 mg/kg i.p.) before their bone marrow was assayed for HPP-CFC numbers. Cells were washed by centrifugation and incubated at densities of 10^6 to 5×10^6 /ml in medium with either no added agent (Controls), pINPROL (25 ng/ml) or MIP-1α (200 ng/ml) for 4 hours. After incubation, cells were washed and plated in agar (0.3%) with 30% FCS and combined conditioned medium from 5637 and WEHI-3B cell lines (7.5% of each conditioned medium, as recommended by Sharp et al., 1991). Plating concentration was 5×10^4 cells/ml in 60 mm dishes.

CFU-MIX = CFU-MIX cycling assay in vitro with Ara C; type: cell-based, mouse
Protocol: A similar assay can be performed in vitro, using the cycling status of CFU-MIX instead of CFU-S. The assay is performed as described above for the CFU-S assay except that cytosine arabinoside (Ara C, 30 mg/ml) is used as the cycle-specific toxic agent instead of high dose tritiated thymidine (see B. I. Lord in Haemopoiesis—A Practical Approach, N. G. Testa and G. Molineux (Eds.), IRL Press 1993; Pragnell et al. in Culture of Hematopoietic Cells, R. I. Freshney, I. B. Pragnell and M. G. Freshney (Eds.), Wiley Liss 1994) and a mouse strain with high endogenous cycling rates (Balb/c) is used instead of testosterone-treated BDF1 mice.
To test the activity of these sequences, the CFU-MIX cycling assay was conducted as described in Example 14. As shown in Tables 17-19, these peptides all are active in this assay.

Row | Molecule | % of Control (HPP-CFU) (HPP-CFC) [%] | activity in the CFU-MIX cycling assay (CFU-MIX)
1 | B1 | 101 | 
2 | B2 |  | inactive
